# Bridges are numbered along the chain shown (N, C = ends). Primed or numbered codes have the meaning given here. [ ]: non-standard residue; d: D form. Yn3(5) = tyrosine residue modified with an azide-capped PEG9 group (O-(PEG9-azido)-tyrosine); Ygp(5) = O-(8x polyethylene glycol-amino)-tyrosine (Tyr-PEG8-amine); Ygp = O-(8x polyethylene glycol-amino)-tyrosine; Yn3 = O-(9x polyethylene glycol-azido)-tyrosine; PEG9′ = polyethylene glycol spacer of 9 units; 4x polyethylene glycol = not defined here; hSer = N[C@@H](CCO)C(=O)O; Nle = CCCC[C@H](N)C(=O)O
# Assays:
# [1] = molecular target: IL-2 receptor βγ complex on human cells (pan T cells, PBMC NK cells, NK92 PD1+ cells) (human) (UniProt P14784); assay: cell-based or functional assay
# [2] = molecular target: IL-2 receptor βγ complex (CD122/CD132) on HEK-Blue IL-2Rβγ reporter cells (UniProt P14784); assay: cell-based or functional assay
# Chain of IL-2 receptor βγ complex (CD122/CD132) on HEK-Blue IL-2Rβγ reporter cells (P14784 27-551 limits assumed, chain 1 of 2): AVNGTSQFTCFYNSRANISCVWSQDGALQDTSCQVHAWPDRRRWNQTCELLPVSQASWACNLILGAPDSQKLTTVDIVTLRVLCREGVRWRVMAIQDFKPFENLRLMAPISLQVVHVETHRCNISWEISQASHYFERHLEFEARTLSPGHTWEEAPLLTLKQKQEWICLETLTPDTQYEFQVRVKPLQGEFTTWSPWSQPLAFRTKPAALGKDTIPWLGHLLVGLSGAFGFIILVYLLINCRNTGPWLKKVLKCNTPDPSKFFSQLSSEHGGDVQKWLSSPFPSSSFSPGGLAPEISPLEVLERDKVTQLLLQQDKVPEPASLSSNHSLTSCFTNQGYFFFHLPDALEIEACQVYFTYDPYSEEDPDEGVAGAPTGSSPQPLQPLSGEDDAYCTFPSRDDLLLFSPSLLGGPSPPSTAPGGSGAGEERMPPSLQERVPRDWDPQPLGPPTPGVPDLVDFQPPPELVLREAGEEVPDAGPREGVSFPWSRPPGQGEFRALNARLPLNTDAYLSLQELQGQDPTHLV
# Chain of IL-2 receptor βγ complex (CD122/CD132) on HEK-Blue IL-2Rβγ reporter cells (P31785 23-369 limits assumed, chain 2 of 2, further chain): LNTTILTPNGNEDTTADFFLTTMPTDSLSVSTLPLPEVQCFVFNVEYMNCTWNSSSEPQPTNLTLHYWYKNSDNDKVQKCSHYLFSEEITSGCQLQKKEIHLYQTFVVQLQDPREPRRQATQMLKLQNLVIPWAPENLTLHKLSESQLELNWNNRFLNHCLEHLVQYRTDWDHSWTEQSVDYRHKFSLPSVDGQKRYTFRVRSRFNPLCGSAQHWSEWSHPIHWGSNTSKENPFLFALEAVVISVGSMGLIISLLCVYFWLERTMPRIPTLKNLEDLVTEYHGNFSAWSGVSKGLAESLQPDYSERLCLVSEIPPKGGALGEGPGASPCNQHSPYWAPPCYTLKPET
# Chain of IL-2 receptor βγ complex on human cells (pan T cells, PBMC NK cells, NK92 PD1+ cells) (human) (P14784 27-551, chain 1 of 2): as the sequence (P14784 27-551 limits assumed, chain 1 of 2) above
# Chain of IL-2 receptor βγ complex on human cells (pan T cells, PBMC NK cells, NK92 PD1+ cells) (human) (P31785 23-369, chain 2 of 2, further chain): as the sequence (P31785 23-369 limits assumed, chain 2 of 2, further chain) above
"Average EC50, pSTAT5 assay in NK cells [1] [nM]","Average EC50, HEK-Blue IL-2R (CD122+, CD132+) reporter assay [2] [nM]",Binder
15.7,10.8,"CMP-320, Matriptase cleaved molecule (ligand, lactam N-34; also: treated with matriptase (cleavage site not given here)) SGRVAPQPLVDAPTSSSTKKTQLQLEHLLLDLQEILNGINNYKNPKLTR[Nle]L[hSer][Yn3(5)]KF[Ygp(5)][Nle]PKKATELKHLQCLEEELKPLEEVL[hSer]LAQSKNFHLRPRDLISNINVIVLELKGSETTF[hSer]CEYADETATIVEFLNRWITFSQSIISTLT"
–,0.521,"CMP-303 (ligand, linker (positions not given here) via 4x polyethylene glycol; not fully specified (bridges); reading uncertain; also: ring may run through the N-terminus of residue 1, not given here) PLGLAGAPTSSSTKKTQLQLEHLLLDLQEILNGINNYKNPKLTR[Nle]L[hSer][Yn3]KF[Ygp][Nle]PKKATELKHLQCLEEELKPLEEVL[hSer]LAQSKNFHLRPRDLISNINVIVLELKGSETTF[hSer]CEYADETATIVEFLNRWITFSQSIISTLT"
–,0.34,"CMP-304 (ligand, bridge N-29 via PEG9′) PLGLAGAPTSSSTKKTQLQLEHLLLDLQEILNGINNYKNPKLTR[Nle]L[hSer][Yn3]KF[Ygp][Nle]PKKATELKHLQCLEEELKPLEEVL[hSer]LAQSKNFHLRPRDLISNINVIVLELKGSETTF[hSer]CEYADETATIVEFLNRWITFSQSIISTLT"
33.7,2.47,"CMP-318, Matriptase cleaved molecule (ligand, lactam N-32; also: treated with matriptase, cleavage site not given here) SGRVANLVGAPTSSSTKKTQLQLEHLLLDLQEILNGINNYKNPKLTR[Nle]L[hSer][Yn3(5)]KF[Ygp(5)][Nle]PKKATELKHLQCLEEELKPLEEVL[hSer]LAQSKNFHLRPRDLISNINVIVLELKGSETTF[hSer]CEYADETATIVEFLNRWITFSQSIISTLT"
65.2,4.22,"CMP-321, Matriptase cleaved molecule (ligand, lactam N-32; also: treated with matriptase (cleavage site not given here)) SGRVQPLVDAPTSSSTKKTQLQLEHLLLDLQEILNGINNYKNPKLTR[Nle]L[hSer][Yn3(5)]KF[Ygp(5)][Nle]PKKATELKHLQCLEEELKPLEEVL[hSer]LAQSKNFHLRPRDLISNINVIVLELKGSETTF[hSer]CEYADETATIVEFLNRWITFSQSIISTLT"
–,0.106,"CMP-154 (ligand, linker N-35 via 9x polyethylene glycol) PLGLAGAPTSSSTKKTQLQLEHLLLDLQ[Nle]ILNGIENYKNPKLTR[Nle]L[hSer][Yn3]KF[Ygp][Nle]PKKATELKHLQCLEEELKPLEEVL[hSer]LAQSKNFHLRPRDLISNINVIVLELKGSETTF[hSer]CEYADETATIVEFLNRWITFSQSIISTLT"
37.4,3.37,"CMP-318 (ligand, lactam N-32) SGRVANLVGAPTSSSTKKTQLQLEHLLLDLQEILNGINNYKNPKLTR[Nle]L[hSer][Yn3]KF[Ygp][Nle]PKKATELKHLQCLEEELKPLEEVL[hSer]LAQSKNFHLRPRDLISNINVIVLELKGSETTF[hSer]CEYADETATIVEFLNRWITFSQSIISTLT"
2.94,0.181,"CMP-321, MMP2 cleaved molecule (ligand, lactam N-32; also: treated with MMP2 (cleavage site not given here)) SGRVQPLVDAPTSSSTKKTQLQLEHLLLDLQEILNGINNYKNPKLTR[Nle]L[hSer][Yn3(5)]KF[Ygp(5)][Nle]PKKATELKHLQCLEEELKPLEEVL[hSer]LAQSKNFHLRPRDLISNINVIVLELKGSETTF[hSer]CEYADETATIVEFLNRWITFSQSIISTLT"
–,0.168,"CMP-161 (ligand, bridge N-32; not fully specified (bridges)) PLGLAGAPTSSSTKKTQLQLEHLLLDLQ[Nle]ILEGINNYKNPKLTR[Nle]L[hSer][Yn3]KF[Ygp][Nle]PKKATELKHLQCLEEELKPLEEVL[hSer]LAQSKNFHLRPRDLISNINVIVLELKGSETTF[hSer]CEYADETATIVEFLNRWITFSQSIISTLT"

# Second part, the binder before the results:
Binder,"Average EC50, pSTAT5 assay in NK cells [1] [nM]","Average EC50, HEK-Blue IL-2R (CD122+, CD132+) reporter assay [2] [nM]"
"CMP-318, MMP2 cleaved molecule (ligand, not fully specified (bridges)) SGRVANLVGAPTSSSTKKTQLQLEHLLLDLQEILNGINNYKNPKLTR[Nle]L[hSer][Yn3]KF[Ygp][Nle]PKKATELKHLQCLEEELKPLEEVL[hSer]LAQSKNFHLRPRDLISNINVIVLELKGSETTF[hSer]CEYADETATIVEFLNRWITFSQSIISTLT",0.388,0.0259
"CMP-159 (ligand, linker N-28 via 4x polyethylene glycol; reading uncertain) PLGLAGAPTSSSTKKTQLQLEHLLLDLE[Nle]ILNGINNYKNPKLTR[Nle]L[hSer][Yn3]KF[Ygp][Nle]PKKATELKHLQCLEEELKPLEEVL[hSer]LAQSKNFHLRPRDLISNINVIVLELKGSETTF[hSer]CEYADETATIVEFLNRWITFSQSIISTLT",–,0.192
"CMP-319 (ligand, lactam N-33) RGRRVANLVGAPTSSSTKKTQLQLEHLLLDLQEILNGINNYKNPKLTR[Nle]L[hSer][Yn3(5)]KF[Ygp(5)][Nle]PKKATELKHLQCLEEELKPLEEVL[hSer]LAQSKNFHLRPRDLISNINVIVLELKGSETTF[hSer]CEYADETATIVEFLNRWITFSQSIISTLT",7.72,1.05
"CMP-320 (ligand, lactam N-34) SGRVAPQPLVDAPTSSSTKKTQLQLEHLLLDLQEILNGINNYKNPKLTR[Nle]L[hSer][Yn3(5)]KF[Ygp(5)][Nle]PKKATELKHLQCLEEELKPLEEVL[hSer]LAQSKNFHLRPRDLISNINVIVLELKGSETTF[hSer]CEYADETATIVEFLNRWITFSQSIISTLT",13.2,0.775
"CMP-321 (ligand, lactam N-32) SGRVQPLVDAPTSSSTKKTQLQLEHLLLDLQEILNGINNYKNPKLTR[Nle]L[hSer][Yn3(5)]KF[Ygp(5)][Nle]PKKATELKHLQCLEEELKPLEEVL[hSer]LAQSKNFHLRPRDLISNINVIVLELKGSETTF[hSer]CEYADETATIVEFLNRWITFSQSIISTLT",55.1,4.2
"CMP-320, MMP2 cleaved molecule (ligand, lactam N-34; also: treated with MMP2 (cleavage site not given here)) SGRVAPQPLVDAPTSSSTKKTQLQLEHLLLDLQEILNGINNYKNPKLTR[Nle]L[hSer][Yn3(5)]KF[Ygp(5)][Nle]PKKATELKHLQCLEEELKPLEEVL[hSer]LAQSKNFHLRPRDLISNINVIVLELKGSETTF[hSer]CEYADETATIVEFLNRWITFSQSIISTLT",0.571,0.0392
"CMP-302 (ligand, lactam N-30) GPLGLAGAPTSSSTKKTQLQLEHLLLDLQEILNGINNYKNPKLTR[Nle]L[hSer][Yn3]KF[Ygp][Nle]PKKATELKHLQCLEEELKPLEEVL[hSer]LAQSKNFHLRPRDLISNINVIVLELKGSETTF[hSer]CEYADETATIVEFLNRWITFSQSIISTLT",–,0.436
"CMP-152 (ligand, linker N-38 via 1,5‑pentanedioic acid‑9x polyethylene glycol linker) PLGLAGAPTSSSTKKTQLQLEHLLLDLQ[Nle]ILNGINNYKNPKLTR[Nle]L[hSer][Yn3]KF[Ygp][Nle]PKKATELKHLQCLEEELKPLEEVL[hSer]LAQSKNFHLRPRDLISNINVIVLELKGSETTF[hSer]CEYADETATIVEFLNRWITFSQSIISTLT",–,0.0597
"CMP-319, Matriptase cleaved molecule (ligand, lactam N-33; also: treated with matriptase (cleavage site not given here)) RGRRVANLVGAPTSSSTKKTQLQLEHLLLDLQEILNGINNYKNPKLTR[Nle]L[hSer][Yn3(5)]KF[Ygp(5)][Nle]PKKATELKHLQCLEEELKPLEEVL[hSer]LAQSKNFHLRPRDLISNINVIVLELKGSETTF[hSer]CEYADETATIVEFLNRWITFSQSIISTLT",0.804,0.0507
"CMP-319, MMP2 cleaved molecule (ligand, lactam N-33; also: treated with MMP2 (cleavage site not given here)) RGRRVANLVGAPTSSSTKKTQLQLEHLLLDLQEILNGINNYKNPKLTR[Nle]L[hSer][Yn3(5)]KF[Ygp(5)][Nle]PKKATELKHLQCLEEELKPLEEVL[hSer]LAQSKNFHLRPRDLISNINVIVLELKGSETTF[hSer]CEYADETATIVEFLNRWITFSQSIISTLT",0.713,0.049
